B1: anti-glycPD-1 monoclonal antibody STM432 (antibody, V domains shown)
VH: EVMLVEPGGGLVKPGGSLKLSCAASGFTFSSYGMSWVRQTPEKRLEWVATISGGGANTYYPDTVKGRFTISRDNAKNTLYLQMNSLRSEDTALYYCARYGYDTVFAYWGQGTLVTVSA
VL: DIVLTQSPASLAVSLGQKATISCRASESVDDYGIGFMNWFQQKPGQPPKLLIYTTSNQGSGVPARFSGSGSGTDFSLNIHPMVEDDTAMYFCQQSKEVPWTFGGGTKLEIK
notes: Mouse monoclonal antibody from a hybridoma; also called MAb STM432
B2: 4NQ mutant (unglycosylated) PD-1 expressed on 293T cells (PD-1-Flag) (receptor)
chain: LDSPDRPWNPPTFSPALLVVTEGDQATFTCSFSQTSESFVLNWYRMSPSQQTDKLAAFPEDRSQPGQDCRFRVTQLPNGRDFHMSVVRARRQDSGTYLCGAISLAPKAQIKESLRAELRVTERRAEVPTAHPSPSPRPAGQFQTLVVGVVGGLLGSLVLLVWVLAVICSRAARGTIGARRTGQPLKEDPSAVPVFSVDYGELDFQWREKTPEPPVPCVPEQTEYATIVFPSGMGTSSPARRGSADGPRSAQPLRPEDGHCSWPL
notes: also called PD-1 4NQ; not shown: Flag tag

For experiment [1], the target named is T1, N49Q mutant PD-1-Fc protein (Homo sapiens (Human), UniProt Q15116 25-170).
T1 construct: also called PD-1 with a mutant glycosylation site at position 49; not shown: Fc portion
Briefly: Western blot of PD-1-Fc proteins. For orientation: A western blot detects proteins with antibodies after separation by electrophoresis.

The target in experiment [2] is T2, N74Q mutant PD-1-Fc protein (Homo sapiens (Human), UniProt Q15116 25-170).
T2 construct: also called PD-1 with a mutant glycosylation site at position 74; not shown: Fc portion
Briefly: Western blot of PD-1-Fc proteins.

Experiment [3] deals with T3, wild type (glycosylated) PD-1 expressed on 293T cells (PD-1-Flag) (human, UniProt Q15116 25-288, N-linked glycosylation at N49, N58, N74 and N116).
T3 construct: also called PD-1 WT; not shown: Flag tag
Nature of the experiment: flow cytometry on 293T cells; reference: 4NQ PD-1 cells. On the procedure: (§1) Flow Cytometry. Cells overexpressing PD-1 wild type and mutant proteins or control vector were isolated by trypsinization and collected in Cell Staining Buffer (CSB) (BioLegend, San Diego, Calif., US) at 2×10⁶ cells/mL. 50 μL of cells were aliquoted to a 96 well round-bottom plate, to which 50 μL of 20 μg/mL primary antibody was added, followed by gentle mixing and 1 h incubation at 4° C. in the dark. Cells were washed with CSB, incubated with anti-mouse IgG-PE conjugate (10 μg/mL) with DAPI (1:100) 30 minutes 21° C. in the dark. Cells were washed and data acquired using Guava EasyCyte HT (Millipore Darmstadt, Del.) or FACS Celesta (Becton Dickinson, Franklin Lakes, N.J., US) flow cytometer.
On the technique in general: In flow cytometry, cells or beads pass a laser one at a time.

Another experiment deals with T4, PD-1-His (Homo sapiens (Human), UniProt Q15116 25-170, limits assumed).
T4 construct: also called glycosylated PD-1 (BIACORE antigen); not shown: His tag
Nature of the experiment: BIACORE (SPR), antigen PD-1-His. (In general: In SPR one partner is held on a chip, and binding of the other changes the refractive index at the surface.)

For experiment [4], the target named is T5, N49Q mutant PD-1 expressed on 293T cells (PD-1-Flag) (human, UniProt Q15116 25-288).
T5 construct: also called N49Q PD-1; not shown: Flag tag
Briefly: flow cytometry on 293T cells expressing N49Q PD-1, anti-mouse IgG-PE secondary. The protocol:
as §1

In experiment [5] the target is T6, N116Q mutant PD-1 expressed on 293T cells (PD-1-Flag) (human, UniProt Q15116 25-288).
T6 construct: also called N116Q PD-1; not shown: Flag tag
Briefly: flow cytometry on 293T cells expressing N116Q PD-1, anti-mouse IgG-PE secondary. The protocol:
as §1

In experiment [6] the target is T7, N74Q mutant PD-1 expressed on 293T cells (PD-1-Flag) (human, UniProt Q15116 25-288).
T7 construct: also called N74Q PD-1; not shown: Flag tag
Briefly: flow cytometry on 293T cells expressing N74Q PD-1, anti-mouse IgG-PE secondary. On the procedure: as §1

Experiment [7] concerns the target T3, wild type (glycosylated) PD-1 expressed …. Briefly: flow cytometry on 293T cells expressing wild type PD-1 against 293T cells expressing 4NQ PD-1, labeled secondary antibody. On the procedure:
as §1

Experiment [8] shares this target. Nature of the experiment: inhibition of PD-L1-Fc binding to 293T cells overexpressing PD-1, IncuCyte fluorescence imaging. The protocol:
Green fluorescence was measured every 2 hours by IncuCyte™ Zoom device and quantitated by IncuCyte™ Zoom Software (Essen BioScience, Ann Arbor, Mich., USA).

For experiment [9], the target named is T5, N49Q mutant PD-1 expressed on 293T …. Briefly: flow cytometry on 293T cells expressing the PD-1 form, labeled secondary antibody. On the procedure: as §1
In experiment [10] the target is T7, N74Q mutant PD-1 expressed on 293T …. The description is as above. The protocol:
as §1

The target in experiment [11] is T3, wild type (glycosylated) PD-1 expressed …. The description is as above. The protocol:
as §1

Experiment [12] deals with T8, N58Q mutant PD-1 expressed on 293T cells (PD-1-Flag) (human, UniProt Q15116 25-288).
T8 construct: also called N58Q PD-1; not shown: Flag tag
Described as above. The protocol:
as §1

Experiment [13] concerns the target T6, N116Q mutant PD-1 expressed on 293T …. The experiment is described as above. The protocol: as §1
The target of experiment [14] is B2. Described as above. The protocol:
as §1

For experiment [15], the target named is B2. Nature of the experiment: flow cytometry on 293T cells expressing 4NQ PD-1, anti-mouse IgG-PE secondary. The protocol: as §1
The target of experiment [16] is T5, N49Q mutant PD-1 expressed on 293T …. Nature of the experiment: flow cytometry on 293T cells expressing the PD-1 variant, anti-mouse IgG-PE secondary, DAPI-negative population gated; percent of cells right of the dashed gate; 293T blank cells give 2.71. On the procedure: as §1
In experiment [17] the target is T7, N74Q mutant PD-1 expressed on 293T …. The experiment is described as above. The protocol: as §1
Experiment [18] addresses T6, N116Q mutant PD-1 expressed on 293T …. The description is as above. The protocol:
as §1

For experiment [19], the target named is B2. The experiment is described as above. The protocol:
as §1

In experiment [20] the target is T9, recombinant human PD-L1-Fc chimera protein (R&D Systems) (human, UniProt Q9NZQ7 19-239).
T9 construct: Bought reagent; Used fluorescently labeled or detected with anti-human-Fc Alexa Fluor 488; also called PD-L1-Fc fusion protein; not shown: Fc portion, detected with anti-human IgG
Briefly: live-cell imaging (IncuCyte) of labeled PD-L1-Fc on 293T cells. An excerpt:
PD-L1 and PD-1 (PD-L1/PD-1) interaction assay. […] The secondary antibodies used were anti-human Alexa Fluor 488 dye conjugate (Life Technologies). The fluorescence intensity of Alexa Fluor 488 dye was then monitored using a real-time microscope IncuCyte (Essen BioScience, Ann Arbor, Mich., USA).
Ligand and receptor binding was quantified by IncuCyte™Zoom every hour, according to the manufacturer's instructions.

These results are taken from patent US20210139588A1 (STCUBE, published 2021).

By Kd is commonly meant the free concentration of one partner at which half of the binding sites on the other are occupied at equilibrium, for simple one-to-one binding. Broadly, the koff is the first-order rate constant of dissociation. The low end stands for a long-lived complex, the high end for a short-lived complex. One may read the kon as the rate constant with which the complex forms. The EC50 is the concentration needed to bring the measured effect to its halfway point.

T9 sequence (Q9NZQ7 19-239 limits assumed, change not shown): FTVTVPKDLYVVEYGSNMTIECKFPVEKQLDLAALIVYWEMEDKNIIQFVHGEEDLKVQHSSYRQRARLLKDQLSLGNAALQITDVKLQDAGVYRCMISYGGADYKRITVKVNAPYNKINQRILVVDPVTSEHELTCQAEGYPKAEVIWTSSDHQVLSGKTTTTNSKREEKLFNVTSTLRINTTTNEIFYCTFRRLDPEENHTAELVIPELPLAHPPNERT

Regarding B1, the binding result in experiment [1] is “no binding (tested: 0.5 µg protein on the blot)”; in experiment [2] it was “no binding (tested: 0.5 µg protein on the blot)”; in [4], “no binding”; in [5], “no binding”; in experiment [6], “no binding”; in experiment [15], “no binding”. The “fold MFI on wild type PD-1 against unglycosylated 4NQ mutant PD-1” value in experiment [3] is roughly 43 fold. In the experiment with PD-1-His, this molecule returned a Kd of 296 nM. Besides, the koff with PD-1-His came out at 0.0053 s⁻¹. The same molecule showed a kon with PD-1-His of 17900 M⁻¹ s⁻¹. The “fold MFI against binding to the unglycosylated 4NQ mutant PD-1” value in experiment [7] is roughly 43 times. The same molecule displayed an EC50 in experiment [8] of 0.11 µg/mL. The MFI in experiment [9] came to 32 MFI; in experiment [10] it was 29 MFI; in experiment [11], 1140 MFI; in [12], 413 MFI; in experiment [13], 31 MFI; in [14], 26 MFI. The “Unit (%) (cells in the positive gate)” value in [16] was 4.6%; in [17], 7.71%; in experiment [18], 4.12%; in experiment [19], 1.82%.

With B2, the binding result in experiment [20] was “no binding”.
